Experiment: yeast display, Sf9 membrane polyspecificity reagent, FACS + sequencing; frameworks hold sequencing errors
Procedure, shortened: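 In a synthetic yeast display library (Saccharomyces cerevisiae BJ5465), nanobody expression was induced with galactose for 36–48 hours. FACS gates were set low and high (top ~1%) using anti-HA fluorescence for expression and streptavidin fluorescence for binding of the Sf9 membrane reagent. Each polyreactivity label is drawn from the gate of origin.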

Sequence | polyreactivity (PSR sort gate)
QVHLVESGGGLDQARGSHRLSCAASGYTIPTYAMGWYRHAPGKERELVAAINWSGSRTYYADSVKGRFTISRDNAKNTVYLQMNSVKPEDTAFYYCAAYAYRVGPIRRHDYWGQGTQVTVSS | high polyreactivity
QVHLVESGGGLFQAGGSLPLSCAASGYIFVRYAKGWYRQAPGKEREFVAAISSSGGSTRYADSVKARFTLSRDNAKNTVYLQMNSLKPEDTAVYYGAATRVARHGSPMYYWGQGTQVTVSS | high polyreactivity
QVHLVESGGGLFQAGGSLRLSCAASGRTFYYNAMGWYRQAPGKEREFVAAITWSGTRTYYADSVKGRFTISRDNAKNTVYLQMNSLKPEDTAVYYCNARAGSGSRFGYWGEGTQVTVSS | high polyreactivity
QVHLVESGGGLFQAGGSLRLSCAASGRTFYYYGMGWYRQAPGKERELVASITNGGNTNYADSVKGRFTISRDNAKNTVYLQMNSLKPEDTAVYYCANDVPYWRPVVRYDYWGQGTQVTVSS | low polyreactivity
QVHLVESGGGLLQAGGSLRLSCAASGYTFVNYAMGWYREAPRKEMELVAAISYRGGSTSYADSVKGRFTISRDNAKNTVYLQMKSLKPEDSAVYYCAVVGQNWQSLRYDYWGQGTQVTVSS | high polyreactivity
QVHLVESGGGLVHAGGSIRLSCAASGSIFGYYAMGWYRQAPGKEREFVAAITWNGGSTYYADSVKGRFTISRDNAKNTVYLEMISLKPEDTAVYYCARTSYARFRNGWTYDHWGQGTQVSVSS | low polyreactivity
QVHLVESGGGLVLAGGSLRLSCAASGRIFSFYAMGWYRQAPGKERELVAAISSGGNTYYADSLKGRFTISRDNAKNTVYLQMNSLKPEDTAVYYCATGYRNLSSRYGYWGQGTQVSVSS | high polyreactivity
QVHLVESGGGLVLAGGSLRLSCAASVRIYTRNVMGWYRQAPGKERELVAAISTSGGSTFYADSVKGRFTISRDNAKNTVYLQMNSLKPEDTAVYYCAKRRYGKLEYWGQGTQVTVSS | high polyreactivity
QVHLVESGGGLVPAGGSLRLSCAASGGIFIFYAMGWYRQAPGKERELVAAISNVSSTNYADSVKGRFTISRDNAKNTVYLQMNSLKPEDTAVYYCNAVGVPSEYYSWGQGTQVTVSS | low polyreactivity
QVHLVESGGGLVQAAGSLRLSCAASVSTIPPNAMGWDRQAPGKEREFVAAISSVGSSYYADSVKGRFTISRDNAKKTFYLQMNSLKPEDTAVYYCAKGSWYWVEPYDYWGLGTQVTVSS | high polyreactivity
QVHLVESGGGLVQAGCSLRLSCAASGSIFYRYAMGWYRQEPGKECELVAAIRTRGGTYYADSVKGRFTISRDNAKNTVYLQIKSLKPEDTAVYYCNAGYGTWYLWYEYWGQGTQVTVSS | high polyreactivity
QVHLVESGGGLVQAGGILRLSCPASGQTFWAYAMGWYRQAPGKERELVAAISWRGGSTYYADSVKGRFTISRDNAKNTVYLQMNSLKPEDTAVYYCAAQYLYYGGRRYDFWGQGTQVTVSS | high polyreactivity
QVHLVESGGGLVQAGGILRLSCSASGRIFSVNAMGWYRQSPGKERELVAAITTRGGTTYYADSVKGRFTISRDNAKNTVYLLMNSLKPEDTAVYYCAAESSWYVYWEWAHDYWGQGTQVTVSS | low polyreactivity
QVHLVESGGGLVQAGGRLRLSCAASGFTFAHYDMGWYRQAPGKERELVAAITWSGSSTFYADSLKGRFTISRDNAKNTVYLQMYCMKPEDNAVYYCNADYDVSYWFYQDVIYDYWGQGTQVTVSS | low polyreactivity
QVHLVESGGGLVQAGGRLRLSCAASGFTIGHYAMAWYRQAPGKERELVAAISSGDRTYYADSVKGRFTISRDNAKNTVYLQMNCLKPEDTAVYFCNGVYYSWAQSARFDYWGQGTQVTVSS | low polyreactivity
QVHLVESGGGLVQAGGRLRLSCAASGIIFRLYGMGWYRQAPGKEREFVATITWRGGRTNYADSVKGRFTIARDNAKNTVYLQMNSLKPEDTAVYYCAKVVRYARSNEYDSWGQGTQVTVSS | low polyreactivity
QVHLVESGGGLVQAGGRLRLSCDASGRTFKGYAMGWYRQAPGQERELGAAISFTGGSTYYADSVKGRFTISRDNAKNPVDLQMNSLKPEDTAVYYCNAVNYRGYGYWGQGTQVTVSS | high polyreactivity
